Earlier results on one substance are cited in article PMC2613885.

The target in this series is Robo1 (Homo sapiens) (UniProt Q9Y6N7).
Robo1 (Homo sapiens), sequence (Q9Y6N7 26-897): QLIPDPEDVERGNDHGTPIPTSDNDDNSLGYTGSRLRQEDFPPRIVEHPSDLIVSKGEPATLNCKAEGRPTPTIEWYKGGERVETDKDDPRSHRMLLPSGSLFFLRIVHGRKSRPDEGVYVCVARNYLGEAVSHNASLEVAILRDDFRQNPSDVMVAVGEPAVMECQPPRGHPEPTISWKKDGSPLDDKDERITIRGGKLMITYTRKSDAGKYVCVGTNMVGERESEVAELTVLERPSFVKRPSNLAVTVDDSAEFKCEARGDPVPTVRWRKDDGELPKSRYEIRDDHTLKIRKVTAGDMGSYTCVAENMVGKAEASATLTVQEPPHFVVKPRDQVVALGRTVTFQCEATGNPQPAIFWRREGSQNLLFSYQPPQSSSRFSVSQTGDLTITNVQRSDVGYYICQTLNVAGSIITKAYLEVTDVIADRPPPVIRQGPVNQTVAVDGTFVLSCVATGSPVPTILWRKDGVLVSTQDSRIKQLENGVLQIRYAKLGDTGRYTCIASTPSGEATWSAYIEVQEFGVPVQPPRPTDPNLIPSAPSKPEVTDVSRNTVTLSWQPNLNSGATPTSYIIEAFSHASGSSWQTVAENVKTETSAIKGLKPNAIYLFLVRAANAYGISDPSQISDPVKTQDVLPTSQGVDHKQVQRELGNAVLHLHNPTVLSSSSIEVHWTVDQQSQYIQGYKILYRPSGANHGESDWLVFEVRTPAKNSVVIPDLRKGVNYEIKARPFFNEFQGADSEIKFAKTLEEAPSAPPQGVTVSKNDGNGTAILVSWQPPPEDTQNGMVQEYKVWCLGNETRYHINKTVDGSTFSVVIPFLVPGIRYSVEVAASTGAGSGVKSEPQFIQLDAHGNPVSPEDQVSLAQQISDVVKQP

Slit2, sequence (O94813 31-1529): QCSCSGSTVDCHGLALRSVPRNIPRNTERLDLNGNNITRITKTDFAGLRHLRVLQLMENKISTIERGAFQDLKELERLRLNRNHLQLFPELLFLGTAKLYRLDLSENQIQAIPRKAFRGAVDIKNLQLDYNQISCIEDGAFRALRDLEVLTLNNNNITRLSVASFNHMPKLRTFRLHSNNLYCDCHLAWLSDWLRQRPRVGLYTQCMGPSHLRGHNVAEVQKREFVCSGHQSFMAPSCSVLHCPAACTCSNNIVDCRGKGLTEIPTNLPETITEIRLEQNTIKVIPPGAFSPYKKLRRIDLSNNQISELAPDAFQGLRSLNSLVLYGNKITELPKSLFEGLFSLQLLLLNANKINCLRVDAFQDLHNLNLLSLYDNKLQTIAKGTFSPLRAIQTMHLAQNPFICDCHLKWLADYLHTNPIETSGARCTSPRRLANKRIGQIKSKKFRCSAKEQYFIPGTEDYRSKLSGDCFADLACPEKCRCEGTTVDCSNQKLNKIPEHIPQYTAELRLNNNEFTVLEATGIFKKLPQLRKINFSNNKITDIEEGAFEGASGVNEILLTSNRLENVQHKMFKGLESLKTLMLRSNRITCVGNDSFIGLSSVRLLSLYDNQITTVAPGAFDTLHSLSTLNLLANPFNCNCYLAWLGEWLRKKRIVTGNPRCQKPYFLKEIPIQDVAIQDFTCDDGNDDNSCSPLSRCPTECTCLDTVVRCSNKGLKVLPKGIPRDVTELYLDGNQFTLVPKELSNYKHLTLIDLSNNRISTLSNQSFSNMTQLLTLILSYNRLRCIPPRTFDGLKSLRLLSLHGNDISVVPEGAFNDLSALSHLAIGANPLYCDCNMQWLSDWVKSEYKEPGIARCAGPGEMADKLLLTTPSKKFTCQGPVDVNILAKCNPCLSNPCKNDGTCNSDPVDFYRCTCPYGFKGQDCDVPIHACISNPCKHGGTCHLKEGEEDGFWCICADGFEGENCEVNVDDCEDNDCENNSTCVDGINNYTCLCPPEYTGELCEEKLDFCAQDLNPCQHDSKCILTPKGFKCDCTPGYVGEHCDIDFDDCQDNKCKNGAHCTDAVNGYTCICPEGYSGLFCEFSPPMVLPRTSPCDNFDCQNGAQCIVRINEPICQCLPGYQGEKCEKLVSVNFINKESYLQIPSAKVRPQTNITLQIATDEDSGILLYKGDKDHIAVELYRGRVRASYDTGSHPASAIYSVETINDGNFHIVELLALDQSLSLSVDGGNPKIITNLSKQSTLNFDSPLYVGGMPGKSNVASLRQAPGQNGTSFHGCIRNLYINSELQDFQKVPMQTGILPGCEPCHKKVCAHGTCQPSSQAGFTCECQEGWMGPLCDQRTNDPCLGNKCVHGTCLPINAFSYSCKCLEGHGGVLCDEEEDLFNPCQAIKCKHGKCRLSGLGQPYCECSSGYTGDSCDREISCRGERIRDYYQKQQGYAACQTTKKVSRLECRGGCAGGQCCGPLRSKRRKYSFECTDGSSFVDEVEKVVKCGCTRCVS

What is called Kd is the concentration at which binding is half-saturated. Consider Slit2 (from UniProt O94813), for which the equilibrium dissociation constant (Kd) was 9 nM.
